Paper PMC8465852, “The HMGB Protein KlIxr1, a DNA Binding Regulator of Kluyveromyces lactis Gene Expression Involved in Oxidative Metabolism, Growth, and dNTP Synthesis”

What was measured:
KlIxr1 [1] = target: T1, KlIxr1 (Kluyveromyces lactis, UniProt Q6CMQ4 1-464); experiment: fluorescence anisotropy; 100 nM DNA; FA: 10 mM Tris-HCl pH 8.0, 100 mM KCl, 2 mM DTT, 1 mM EDTA, 500 ug/mL BSA, 25 C, 100 nM DNA; EMSA: 4 C 30 min, 500 nM DNA, 1 ug protein, 1 ug calf thymus DNA, buffer by reference; conditions: protein: recombinant, tags: N-terminal 6xHis, blunt
T1 sequence: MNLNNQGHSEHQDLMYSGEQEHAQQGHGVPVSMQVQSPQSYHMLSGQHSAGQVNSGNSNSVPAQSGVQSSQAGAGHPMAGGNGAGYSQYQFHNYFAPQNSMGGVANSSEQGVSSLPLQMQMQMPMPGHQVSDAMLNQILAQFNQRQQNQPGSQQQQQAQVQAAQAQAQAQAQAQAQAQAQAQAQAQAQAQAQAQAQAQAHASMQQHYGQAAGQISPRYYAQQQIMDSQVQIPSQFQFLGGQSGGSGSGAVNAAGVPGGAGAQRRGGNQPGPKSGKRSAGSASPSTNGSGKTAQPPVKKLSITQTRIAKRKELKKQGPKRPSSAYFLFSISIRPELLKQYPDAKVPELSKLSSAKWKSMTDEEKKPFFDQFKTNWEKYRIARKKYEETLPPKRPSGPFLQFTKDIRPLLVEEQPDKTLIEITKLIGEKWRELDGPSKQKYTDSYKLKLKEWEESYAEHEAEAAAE

KlIxr1 [2] = target: T1, KlIxr1; experiment: EMSA; calf thymus DNA carrier; two retarded bands; FA: 10 mM Tris-HCl pH 8.0, 100 mM KCl, 2 mM DTT, 1 mM EDTA, 500 ug/mL BSA, 25 C, 100 nM DNA; EMSA: 4 C 30 min, 500 nM DNA, 1 ug protein, 1 ug calf thymus DNA, buffer by reference; conditions: protein: recombinant; tags: N-terminal 6xHis; label: 5'-FAM on forward strand (AJVV009f*); blunt

B1: HEM13B (dsDNA)
DNA 1: TGGCCCAGCCTCTATTTCTCTCGTACCGGT
DNA 2: ACCGGTACGAGAGAAATAGAGGCTGGGCCA
**Q.** Which Kd (KlIxr1 [1]; label: 5'-FAM on forward strand (AJVV050f*)) does the source give for B1 here?
**A.** The Kd was 155 ± 38.6 nM.

B2: HEM13A (dsDNA)
DNA 1: ATCTTGAATGTATGTTGGTTCAGCCTCTCC
DNA 2: GGAGAGGCTGAACCAACATACATTCAAGAT
**Q.** For B2, which Kd (KlIxr1 [1]; label: 5'-FAM on forward strand (AJVV045f*)) is on record?
**A.** The Kd was 15.6 ± 4.27 nM.

B3: KlYCF1 promoter (dsDNA)
DNA 1: TTAATTGCAATTGTTACTGTTGATTTTAAA
DNA 2: TTTAAAATCAACAGTAACAATTGCAATTAA
**Q.** With B3 as the binder, how does the Kd (KlIxr1 [1]; label: 5'-FAM on forward strand (AJVV029f*)) read?
**A.** The Kd was 105 ± 18.9 nM.

B4: KlHEM13 promoter 40-mer (both sites) (dsDNA)
DNA 1: ATCTTGAATGTATGTTGGTTCAGCCTCTATTTCTCTCGTA
DNA 2: TACGAGAGAAATAGAGGCTGAACCAACATACATTCAAGAT
**Q.** Does B4 bind (KlIxr1 [2])?
**A.** Result: binds
